According to patent CN101151278A:
Substitutions are numbered along the chain they refer to. Values belong to the binder of their own block, whether it stands above or below them.

Columns and labels:
[1] = target: T1, 可溶性CD20 (Genentech) (UniProt P11836); experiment: ELISA, soluble CD20 coated on plate
T1 sequence (looked up): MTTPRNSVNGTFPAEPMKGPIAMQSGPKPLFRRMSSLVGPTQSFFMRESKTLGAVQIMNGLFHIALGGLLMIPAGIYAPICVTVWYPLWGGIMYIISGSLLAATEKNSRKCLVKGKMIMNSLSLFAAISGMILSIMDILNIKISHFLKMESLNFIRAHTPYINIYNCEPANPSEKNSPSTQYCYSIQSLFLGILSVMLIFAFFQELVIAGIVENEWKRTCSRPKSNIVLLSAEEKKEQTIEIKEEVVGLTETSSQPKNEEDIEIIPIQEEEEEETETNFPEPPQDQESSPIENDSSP

[2] = target: T2, CD20 on WIL2-S cells (human) (UniProt P11836); experiment: cell ELISA, WIL2-S; ratio vs chimeric 2H7.v6.8
T2 sequence (looked up): T1 sequence (looked up)

B2: 2H7.v4 (antibody, IgG1, V domains shown)
VH: EVQLVESGGGLVQPGGSLRLSCAASGYTFTSYNMHWVRQAPGKGLEWVAAIYPGNGDTSYNQKFKGRFTISVDNSKNTLYLQMNSLRAEDTAVYYCARVVYYSNSYWYFDVWGQGTLVTVSS
VL: DIQMTQSPSSLSASVGDRVTITCRASSSVSYMHWYQQKPGKAPKLLIYAPSNLASGVPSRFSGSGSGTDFTLTISSLQPEDFATYYCQQWSFNPPTFGQGTKVEIKR
- 相对结合 [2]: 0.21

B3: 2H7.v3 (antibody, IgG1, V domains shown)
VH: B2 VH with N74K
VL: B2 VL
- 相对结合 [2]: 0.21

The next lines start with the values.

- fold increase in binding (vs 2H7.v16 and 2H7.v588) [1]: 90 fold
B1: hu2H7.v511 (antibody, human IgG1, kappa, V domains shown)
VH: B2 VH with A49G, D57A, N74K, N104Y, S105R
VL: B2 VL with M32L, L45P, S91A

- 相对结合 [2]: 0.01
B4: 人源化2H7型式2 (2H7.v2) (antibody, IgG1, V domains shown)
VH: B2 VH with V72R
VL: B2 VL
